In assay [1] the target is chemokine receptors on THP-1 cells. Put plainly: binding to chemokine receptors on THP-1 cells; given as association constant.
Assay [2] addresses CCR5 (human) (UniProt P51681). Nature of the assay: 12-point Scatchard analysis, 0.03 nM 125I-RANTES on HOS CCR5 cells and parental line, 4°C, 2 hours.
The target in assay [3] is T1, Duffy Antigen Receptor for Chemokines (DARC) (human) (UniProt Q16570).
T1 sequence (looked up): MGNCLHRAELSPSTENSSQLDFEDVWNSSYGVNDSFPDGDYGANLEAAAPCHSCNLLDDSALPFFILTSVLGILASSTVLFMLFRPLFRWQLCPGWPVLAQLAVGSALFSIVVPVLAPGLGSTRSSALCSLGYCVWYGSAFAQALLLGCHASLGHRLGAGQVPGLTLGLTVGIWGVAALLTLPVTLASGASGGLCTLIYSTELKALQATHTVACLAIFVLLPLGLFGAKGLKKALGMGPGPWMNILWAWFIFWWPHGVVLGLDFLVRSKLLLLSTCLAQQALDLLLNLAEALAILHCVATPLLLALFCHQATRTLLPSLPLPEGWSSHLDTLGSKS
Put plainly: footnote c of Table 6; given as affinity constant.

For assay [4], the target named is chemokine receptors on the surface of Jurkat cells. Nature of the assay: 100 µM biotinylated peptide on Jurkat cells with 100-fold excess of the same unlabeled peptide.
The target of assay [5] is chemokine receptors on THP-1 cells. Put plainly: 100 µM biotinylated peptide on THP-1 cells (4 x 10^5 per reaction), 4°C, streptavidin-peroxidase/TMB.
The target is the same in assay [6]. Nature of the assay: 100 µM biotinylated peptide on THP-1 cells with 100-fold excess of the same unlabeled peptide.
In assay [7] the target is chemokine receptors on the surface of Jurkat cells. Put plainly: 100 µM biotinylated peptide on Jurkat cells (10^6 per reaction), 4°C, streptavidin-peroxidase/TMB.
The target of assay [8] is chemokine receptors on THP-1 cells. Put plainly: 100 µM biotinylated peptide on THP-1 cells, alone minus excess unlabeled peptide.
Assay [9] concerns the target chemokine receptors on the surface of Jurkat cells. Put plainly: 100 µM biotinylated peptide on Jurkat cells, alone minus excess unlabeled peptide.
Assay [10] has the same target. Nature of the assay: biotinylated peptide on cells, streptavidin-peroxidase.

“And” between values parts separate entries of the source, which are not always exact repeats. Equal entries are not always repeated.

CCR5 (human), sequence (P51681 whole entry): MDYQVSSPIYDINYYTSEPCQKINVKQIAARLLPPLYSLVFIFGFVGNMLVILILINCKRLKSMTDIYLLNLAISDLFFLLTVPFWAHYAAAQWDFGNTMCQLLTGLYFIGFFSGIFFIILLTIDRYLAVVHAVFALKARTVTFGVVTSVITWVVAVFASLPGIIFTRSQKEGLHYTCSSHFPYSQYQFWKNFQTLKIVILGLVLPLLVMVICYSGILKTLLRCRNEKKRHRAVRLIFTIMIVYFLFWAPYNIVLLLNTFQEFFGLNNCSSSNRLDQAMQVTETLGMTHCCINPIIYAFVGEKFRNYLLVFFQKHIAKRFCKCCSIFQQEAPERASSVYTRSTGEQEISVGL

Consider KQK (peptide), for which the Kd (in general, the concentration at which binding is half-saturated) in assay [1] was 500 nM and 1000 nM.

Regarding “RANTES (from UniProt P13236 24-92) (ligand)”, the Kd in [2] is 1 nM.

Substance WVQ (peptide) returned a Kd in [3] of 2000 nM.

Consider gp120:V3(BaL) (peptide), for which the ΔA450nm, +100-fold excess unlabeled peptide in [4] was 0.168 A450; in [6], 0.107 A450. The results for the ΔA450nm, alone in assay [5] and in [7] were 0.642 A450 and 0.167 A450, respectively. For the same substance, the ΔA450nm, specific binding in assay [8] was 0.535 A450; in assay [9], < 0 A450.

With gp120:V3(IIIb) (peptide), the figures for the ΔA450nm, +100-fold excess unlabeled peptide in assay [4] and in [6] were 0.189 A450 and 0.131 A450, respectively. Moreover, the ΔA450nm, alone in [5] amounted to 0.268 A450; in assay [7], 0.878 A450. The substance further registered a fold specific binding to Jurkat cells against THP-1 cells in assay [10] of 5 fold. The ΔA450nm, specific binding in [8] was determined as 0.137 A450; in assay [9], 0.689 A450.

The record behind these values is patent publication EP2386565A2, “Compounds and methods to inhibit or augment an inflammatory response” (Cambridge Enterprise Ltd., priority 1999, dated 2000).
